This assay addresses SARS-CoV-2 Wuhan-Hu-1 RBD for SPR binding assays (SARS-CoV-2 Wuhan-Hu-1 (NC_045512.2), UniProt P0DTC2). Put plainly: SPR. The following applies: both partners purified.

B1: CT-P59 IgG1 (antibody, V domains shown)
VH: QITLKESGPTLVKPTQTLTLTCSFSGFSLSTSGVGVGWIRQPPGKALEWLALIDWDDNKYHTTSLKTRLTISKDTSKNQVVLTMTNMDPVDTATYYCARIPGFLRYRNRYYYYGMDVWGQGTTVTVSS
VL: ELVLTQPPSVSAAPGQKVTISCSGSSSNIGNNYVSWYQQLPGTAPKLLIYDNNKRPSGIPDRFSGSKSGTSATLGITGLQTGDEADYYCGTWDSSLSAGVFGGGTELTVL
notes: IgG1
Molecule B1 registered a Kd of 0.066 nM, a koff of 0.000365 s⁻¹ and a kon of 5.54e+06 M⁻¹ s⁻¹.

B2: REGN10987 IgG1 (antibody, V domains shown)
VH: QVQLVESGGGVVQPGRSLRLSCAASGFTFSNYAMYWVRQAPGKGLEWVAVISYDGSNKYYADSVKGRFTISRDNSKNTLYLQMNSLRTEDTAVYYCASGSDYGDYLLVYWGQGTLVTVSS
VL: QSALTQPASVSGSPGQSITISCTGTSSDVGGYNYVSWYQQHPGKAPKLMIYDVSKRPSGVSNRFSGSKSGNTASLTISGLQSEDEADYYCNSLTSISTWVFGGGTKLTVL
notes: IgG1
B2 yielded a Kd of 12.4 nM.

B3: LY-CoV016 IgG1 (antibody, V domains shown)
VH: EVQLVESGGGLVQPGGSLRLSCAASGFTVSSNYMSWVRQAPGKGLEWVSVIYSGGSTFYADSVKGRFTISRDNSMNTLFLQMNSLRAEDTAVYYCARVLPMYGDYLDYWGQGTLVTVSS
VL: not shown
notes: IgG1
For the molecule B3, binding was characterised by a dissociation constant (Kd) of 13.8 nM.

B4: REGN10933 IgG1 (antibody, V domains shown)
VH: QVQLVESGGGLVKPGGSLRLSCAASGFTFSDYYMSWIRQAPGKGLEWVSYITYSGSTIYYADSVKGRFTISRDNAKSSLYLQMNSLRAEDTAVYYCARDRGTTMVPFDYWGQGTLVTVSS
VL: DIQMTQSPSSLSASVGDRVTITCQASQDITNYLNWYQQKPGKAPKLLIYAASNLETGVPSRFSGSGSGTDFTFTISGLQPEDIATYYCQQYDNLPLTFGGGTKVEIK
notes: IgG1
B4 showed a Kd of 0.689 nM, a koff of 0.00364 s⁻¹ and a kon of 5.29e+06 M⁻¹ s⁻¹.

B5: S2X35 IgG (antibody, V domains shown)
VH: QVQLVQSGAEVKKPGASVKVSCKASGYTFTNYGISWVRQAPGQGLEWMGWISAYKGNTNYAQKLQGRVTMTTDTSTSTAYMELRSLRSDDTAVYYCARPDYQVLGYDFWIGYYGMDVWGQGTTVIVSS
VL: QSVLTQPPSVSGAPGQRVTISCTGSSSNIGAGYDVHWYQQLPGTAPKLLIYGNTNRPSGVPDRFSGSKSGTSASLAITGLQAEDEADYYCQSYDSSLSGSEVVFGGGTKLTVL
In the case of B5, the Kd came out at 0.268 nM, the koff stood at 0.000153 s⁻¹ and the kon came to 570000 M⁻¹ s⁻¹.

B6: ADI-58125 IgG1 (antibody, V domains shown)
VH: EVQLVESGGGLVKPGGSLRLSCAASGFTFSSYYMNWVRQAPGKGLEWVSSISEDGYSTYYPDSLKGRFTISRDSAKNSLYLQMNSLRADDTAVYYCARDFSGHTAWAGTGFEYWGQGTLVTVSS
VL: QSVLTQPPSVSGAPGQRITISCTGSSSNIGAGYDVHWYQQLPGTAPKLLIYGSSSRNSGVPDRFSGSKSGTSASLAITGLQAEDEADYYCQSYDSSLSVLYTFGTGTKVTVL
notes: IgG1
The molecule B6 showed a Kd of less than 0.01 nM, a koff of 7.17e-08 s⁻¹ and a kon of 1.15e+06 M⁻¹ s⁻¹.

B7: COV2-2196 IgG1 (antibody, V domains shown)
VH: QMQLVQSGPEVKKPGTSVKVSCKASGFTFMSSAVQWVRQARGQRLEWIGWIVIGSGNTNYAQKFQERVTITRDMSTSTAYMELSSLRSEDTAVYYCAAPYCSSISCNDGFDIWGQGTMVTVSS
VL: not shown
notes: IgG1
With B7, binding was put at a Kd of 1.09 nM, the koff is 0.0124 s⁻¹ and the kon is 1.14e+07 M⁻¹ s⁻¹.

B8: LY-CoV555 IgG1 (antibody, V domains shown)
VH: QVQLVQSGAEVKKPGSSVKVSCKASGGTFSNYAISWVRQAPGQGLEWMGRIIPILGIANYAQKFQGRVTITADKSTSTAYMELSSLRSEDTAVYYCARGYYEARHYYYYYAMDVWGQGTAVTVSS
VL: not shown
notes: IgG1
B8: the Kd was found to be 1.48 nM, the koff came out at 0.00117 s⁻¹ and the kon worked out at 792000 M⁻¹ s⁻¹.

The term Kd denotes a measure of binding affinity in units of concentration. The koff is a measure of how fast the partners let go of each other. Read a high koff as a short-lived complex. The term kon denotes a measure of how fast the partners come together. Lower therefore signals slow association.

For the origin of these results see publication PMC9427005 (Science (New York, N.y.), 2022).
